B1: LINE1-full (parent)
chain: UACGUAGGUGGUUUUCCCCUGAUAGUGCUAAGGGGGCCUGGAAGUUUGGACUGGGCAGAGCUCAACACAGCGUGGCAAAGUGGCUGUGGCUAGACUGCCUCUCUGGAUUCCUCGUCACUCAGCAGGGCAUCUCUGAGAGAAAUGCC

In the series the parent is B1. Description: self-cleavage, relative activity (ratio to wild type); higher = more cleavage; in vitro, sequencing; the parent is a self-cleaving ribozyme.
Consider U112A U132C, for which the self-cleavage is 1.42.

Regarding G114A A121U, the self-cleavage was 1.37.

U109A U119C: the self-cleavage was found to be 1.95.

With C113G U143C, the self-cleavage came out at 1.36.

For C113A U143C, the self-cleavage worked out at 0.76.

With C113A, the self-cleavage was 1.01.

On to C113G, for which the self-cleavage worked out at 1.58.

As to C113U, the self-cleavage worked out at 0.98.

As for U115A C133U, the self-cleavage came to 1.04.

In the case of C110U A141G, the self-cleavage was 1.4.

C110U G122A: the self-cleavage amounted to 1.09.

With U109G U143C, the self-cleavage worked out at 0.87.

U109C G125U: the self-cleavage came out at 1.27.

As for C111U A138G, the self-cleavage is 2.01.

With C113A A121G, the self-cleavage was determined as 1.25.

On to U112C U134G, for which the self-cleavage is 1.34.

As to U109G U112C, the self-cleavage was 0.19.

On to U109C A136G, for which the self-cleavage was 1.75.

Turning to U115A C131U, the self-cleavage is 1.65.

As for U112C U115A, the self-cleavage was 1.39.

For the variant C110U A117G, the self-cleavage stood at 2.38.

On to U109G, for which the self-cleavage came out at 0.63.

For the variant U109C, the self-cleavage stood at 1.2.

As for G114U A141U, the self-cleavage was 1.61.

With U112A A140G, the self-cleavage was 1.46.

As for C110A U115C, the self-cleavage came to 1.47.

Consider U112A G114A, for which the self-cleavage is 0.38.

Take C110A A121U: the self-cleavage turned out to be 1.32.

On to C111U U134C, for which the self-cleavage was 2.26.

Turning to U112A U143A, the self-cleavage stood at 1.38.

In the case of C110A A141G, the self-cleavage turned out to be 1.84.

U115A A141U: the self-cleavage is 0.53.

Take U109C G135A: the self-cleavage stood at 1.71.

Turning to U109C C128A, the self-cleavage came out at 1.47.

Take U115A C145U: the self-cleavage turned out to be 1.3.

On to U112C A140U, for which the self-cleavage worked out at 1.29.

As for C110A A124G, the self-cleavage is 1.62.

For the variant C113A A140G, the self-cleavage was 1.06.

Consider U112A A124U, for which the self-cleavage was found to be 1.61.

Turning to U109C A117G, the self-cleavage was 1.7.

In the case of G114C U115C, the self-cleavage stood at 1.24.

With U115A G127A, the self-cleavage came to 1.21.

For the variant U115A A138U, the self-cleavage was found to be 1.77.

As for U115A A138G, the self-cleavage is 1.29.

In the case of U112C U130G, the self-cleavage came out at 1.56.

With U112C U130C, the self-cleavage turned out to be 1.61.

For U115A C123A, the self-cleavage came to 1.7.

Turning to U112A A129G, the self-cleavage amounted to 0.98.

Regarding C113U A124U, the self-cleavage was 1.3.

With G114A U119A, the self-cleavage was 1.26.

Consider U112C A121U, for which the self-cleavage turned out to be 1.09.

Regarding U112C A121G, the self-cleavage was 1.71.

Regarding U109A U112A, the self-cleavage came to 1.35.

As for U109A U112C, the self-cleavage was 1.08.

For U109G A141G, the self-cleavage is 0.93.

For the variant U109G A141U, the self-cleavage came out at 1.08.

Turning to U109C C146U, the self-cleavage was 1.53.

In the case of C110A U130C, the self-cleavage was determined as 1.04.

With U112G C128U, the self-cleavage turned out to be 2.54.

Take U109C G122A: the self-cleavage was 1.81.

Consider G114A A136G, for which the self-cleavage is 1.28.

With U115A A124G, the self-cleavage came to 0.93.

With C110U U112C, the self-cleavage was 2.13.

Consider U112G A136G, for which the self-cleavage stood at 2.3.

As to U112G A136U, the self-cleavage is 0.88.

On to U109C U112A, for which the self-cleavage was 2.11.

Take U109C U112C: the self-cleavage was 1.69.

Turning to U115A A136U, the self-cleavage amounted to 1.52.

As for U109C A124U, the self-cleavage worked out at 1.64.

For U109C A124C, the self-cleavage came to 1.41.

For the variant C113U A138U, the self-cleavage came out at 1.21.

Regarding C113U A138G, the self-cleavage was 1.54.

For C111U A121C, the self-cleavage worked out at 1.54.

Take U109C U143C: the self-cleavage is 1.29.

Turning to C113A A142G, the self-cleavage was found to be 0.47.

Consider U109C C110A, for which the self-cleavage was 1.55.

G114A A124G: the self-cleavage came out at 1.5.

On to G114A A124C, for which the self-cleavage stood at 1.62.

Regarding G114A A142U, the self-cleavage is 1.56.

Regarding G114A A142G, the self-cleavage worked out at 1.31.

With U115C A117U, the self-cleavage came to 1.79.

As to C113U U134C, the self-cleavage was 0.97.

As for C113U U134A, the self-cleavage worked out at 0.47.

On to U112C A129G, for which the self-cleavage was found to be 1.42.

In the case of U112C U119C, the self-cleavage is 1.6.

Regarding U109G A138U, the self-cleavage is 1.07.

With U112A A136U, the self-cleavage was 1.67.

In the case of U112C U143A, the self-cleavage is 1.59.

On to U112C U143C, for which the self-cleavage was determined as 1.54.

As to C113U A121U, the self-cleavage is 1.53.

For the variant G114A C116U, the self-cleavage was found to be 0.76.

With G114A A140U, the self-cleavage amounted to 1.55.

On to G114A A140G, for which the self-cleavage stood at 1.14.

With G114A A140C, the self-cleavage was determined as 1.27.

C113U G135A: the self-cleavage was determined as 1.18.

On to G114A U143C, for which the self-cleavage worked out at 1.02.

For the variant G114A U143G, the self-cleavage is 1.41.

Take G114A U143A: the self-cleavage was 0.68.

On to U109C A129U, for which the self-cleavage is 1.97.

With U109C A129G, the self-cleavage was 1.3.

In the case of U109A U132C, the self-cleavage was 1.37.

With C113U G144A, the self-cleavage came out at 0.31.

In the case of G114U A136G, the self-cleavage worked out at 1.49.

Consider G114U A136U, for which the self-cleavage amounted to 1.23.

Regarding U109C A140U, the self-cleavage stood at 1.15.

With U109C A140G, the self-cleavage came to 0.48.

Consider U112A C113U, for which the self-cleavage was determined as 1.6.

Regarding C113U U132C, the self-cleavage came to 0.89.

U115A U130C: the self-cleavage was 1.62.

In the case of U112C G137A, the self-cleavage is 1.17.

Regarding U112C G137U, the self-cleavage is 0.88.

C113U U143A: the self-cleavage worked out at 1.1.

With C111U U115A, the self-cleavage came out at 1.77.

On to U109C U134C, for which the self-cleavage is 1.21.

Turning to U109C G137A, the self-cleavage was found to be 1.45.

As to C113U A136G, the self-cleavage came to 1.58.

Regarding C113A A117U, the self-cleavage worked out at 1.03.

As for U109A U134A, the self-cleavage stood at 0.68.

Turning to U109A U134C, the self-cleavage is 1.67.

Consider U109A U134G, for which the self-cleavage worked out at 1.25.

Take C111U U130A: the self-cleavage came out at 0.93.

Take U112C A141U: the self-cleavage was found to be 1.47.

Take G114U U134A: the self-cleavage turned out to be 1.09.

As to U115A A121U, the self-cleavage was 1.5.

With U115A A121G, the self-cleavage came out at 1.47.

As for U109C G127A, the self-cleavage is 1.49.

Consider U109C G127U, for which the self-cleavage came out at 1.25.

For U112C C113U, the self-cleavage is 1.28.

In the case of U112C A117U, the self-cleavage was 1.39.

As to U112C A117G, the self-cleavage is 1.42.

Turning to U112A A117U, the self-cleavage worked out at 1.36.

As for U109G A140G, the self-cleavage was 0.21.

Take U112C U132C: the self-cleavage amounted to 1.28.

Consider U112C A124U, for which the self-cleavage is 1.21.

Consider C110G A141G, for which the self-cleavage was 1.37.

For the variant G114C A142G, the self-cleavage was 1.78.

For the variant C111U U143C, the self-cleavage was found to be 1.13.

U115A U134C: the self-cleavage is 1.49.

G114A U130C: the self-cleavage was 1.42.

Regarding U112A G144A, the self-cleavage was determined as 1.32.

U109A U115A: the self-cleavage was 1.47.

As for U109A U115C, the self-cleavage turned out to be 1.43.

For U112C C116G, the self-cleavage turned out to be 2.13.

Regarding C110U A142G, the self-cleavage turned out to be 2.11.

With U112A A142G, the self-cleavage was 1.57.

For U112A A142C, the self-cleavage turned out to be 1.46.

In the case of U109C U115G, the self-cleavage worked out at 1.04.

Regarding C110U C146U, the self-cleavage turned out to be 1.82.

As for U115A A117G, the self-cleavage came out at 1.61.

As for U112C G122U, the self-cleavage stood at 1.86.

As to U112C G122C, the self-cleavage is 1.18.

Regarding C113A C145U, the self-cleavage stood at 1.25.

In the case of U109C A141G, the self-cleavage worked out at 1.46.

As to U112C A138C, the self-cleavage amounted to 1.98.

As for U112C A138G, the self-cleavage was found to be 1.58.

As for U112A U115A, the self-cleavage was 1.4.

For U109A G125A, the self-cleavage worked out at 1.34.

Consider C111U C116A, for which the self-cleavage stood at 1.37.

With G114A U132C, the self-cleavage was 1.45.

On to C110A G122A, for which the self-cleavage is 0.9.

With C111U G114A, the self-cleavage is 1.12.

Take C110U C113A: the self-cleavage came to 1.35.

For U115A U119C, the self-cleavage amounted to 2.02.

In the case of C113A A141G, the self-cleavage turned out to be 1.23.

On to U109A G122A, for which the self-cleavage came to 1.63.

For U109A G139A, the self-cleavage was 1.49.

For the variant C110U A121U, the self-cleavage worked out at 1.43.

Values taken from the RNAGym collection of RNA variant scans (doi:10.7554/elife.90254).
